Patent publication US20140302033A1 (UCB, published 2014)
Values belong to the binder of their own block, whether it stands above or below them.

What was measured:
Human Serum Albumin [1] = molecular target: T1, Human Serum Albumin (human, UniProt P02768 25-609); assay: kinetics table, analyte HSA, single concentration 50nM; HEK293 material; method not named in Example 4
T1 construct: also called HSA; HAS

Human Serum Albumin [2] = molecular target: T1, Human Serum Albumin; assay: kinetics table, analyte HSA, titration 50nM, 25nM, 12.5nM, 6.25nM; HEK293 material; method not named in Example 4
Human Serum Albumin [3] = molecular target: T1, Human Serum Albumin; assay: SPR BIAcore T200; Fab-Fv captured by anti-human F(ab')2, albumin as analyte; average of 3
Description: (§1) BIA (Biamolecular Interaction Analysis) was performed using a BIAcore T200 (GE Healthcare). Affinipure F(ab′)₂ Fragment goat anti-human IgG, F(ab′)₂ fragment specific (Jackson ImmunoResearch) was immobilised on a CM5 Sensor Chip via amine coupling chemistry to a capture level of ≈5000 response units (RUs). HBS-EP buffer (10 mM HEPES pH 7.4, 0.15 M NaCl, 3 mM EDTA, 0.05% Surfactant P20, GE Healthcare) was used as the running buffer with a flow rate of 10 μl/min. A 10 μL injection of Fab-Fv at 0.75 μg/mL was used for capture by the immobilised anti-human IgG-F(ab′)₂. Human Serum Albumin (HSA), Mouse Serum albumin (MSA) and Cynomolgus Serum Albumin (CSA) was titrated over the captured Fab-Fv at various concentrations (50 nM to 6.25 nM) at a flow rate of 30 μL/min. The surface was regenerated by 2×10 μL injection of 50 mM HCl, followed by a 5 μL injection of 5 mM NaOH at a flowrate of 10 μL/min. Background subtraction binding curves were analysed using the T200evaluation software (version 1.0) following standard procedures. Kinetic parameters were determined from the fitting algorithm.

Mouse Serum albumin = molecular target: T2, Mouse Serum albumin (mouse, UniProt P07724 25-608); assay: as above
T2 construct: also called MSA
Description: as §1

Cynomolgus Serum Albumin = molecular target: T3, Cynomolgus Serum Albumin (cynomolgus, UniProt A2V9Z4 25-608); assay: as above
T3 construct: also called CSA
Description: as §1

- Kd (Human Serum Albumin [1]): 1.28 nM
- koff (Human Serum Albumin [1]): 0.000211 s⁻¹
- kon (Human Serum Albumin [1]): 165000 M⁻¹ s⁻¹
- Kd (Human Serum Albumin [2]): 1.31 nM
- koff (Human Serum Albumin [2]): 0.00024 s⁻¹
- kon (Human Serum Albumin [2]): 183000 M⁻¹ s⁻¹
B1: FabA-dsscFv (CL-dsscFv) (bispecific antibody)
chain 1: DIQMTQSPSSLSASVGDRVTITCRATQSIYNALAWYQQKPGKAPKLLIYNANTLHTGVPSRFSASGSGTDSTLTISSLQPEDFATYYCQQYYDYPLTFGGGTKVEIKRTVAAPSVFIFPPSDEQLKSGTASVVCLLNNFYPREAKVQWKVDNALQSGNSQESVTEQDSKDSTYSLSSTLTLSKADYEKHKVYACEVTHQGLSSPVTKSFNRGECSGGGGSGGGGSGGGGSEVQLLESGGGLVQPGGSLRLSCAVSGIDLSNYAINWVRQAPGKCLEWIGIIWASGTTFYATWAKGRFTISRDNSKNTVYLQMNSLRAEDTAVYYCARTVPGYSTAPYFDLWGQGTLVTVSSGGGGSGGGGSGGGGSGGGGSDIQMTQSPSSVSASVGDRVTITCQSSPSVWSNFLSWYQQKPGKAPKLLIYEASKLTSGVPSRFSGSGSGTDFTLTISSLQPEDFATYYCGGGYSSISDTTFGCGTKVEIKRT
chain 2: EVQLVESGGGLVQPGGSLRLSCAASGFTFTNYGIHWIRQAPGKGLEWVASISPSGGLTYYRDSVKGRFTISRDDAKNSPYLQMNSLRAEDTAVYYCATGGEGIFDYWGQGTLVTVSSASTKGPSVFPLAPSSKSTSGGTAALGCLVKDYFPEPVTVSWNSGALTSGVHTFPAVLQSSGLYSLSSVVTVPSSSLGTQTYICNVNHKPSNTKVDKKVEPKSC

- Kd (Human Serum Albumin [1]): 1.25 nM
- koff (Human Serum Albumin [1]): 0.000199 s⁻¹
- kon (Human Serum Albumin [1]): 160000 M⁻¹ s⁻¹
- Kd (Human Serum Albumin [2]): 1.29 nM
- koff (Human Serum Albumin [2]): 0.000222 s⁻¹
- kon (Human Serum Albumin [2]): 172000 M⁻¹ s⁻¹
B2: FabA-dsscFv (CH1-dsscFv) (bispecific antibody)
chain 1: EVQLVESGGGLVQPGGSLRLSCAASGFTFTNYGIHWIRQAPGKGLEWVASISPSGGLTYYRDSVKGRFTISRDDAKNSPYLQMNSLRAEDTAVYYCATGGEGIFDYWGQGTLVTVSSASTKGPSVFPLAPSSKSTSGGTAALGCLVKDYFPEPVTVSWNSGALTSGVHTFPAVLQSSGLYSLSSVVTVPSSSLGTQTYICNVNHKPSNTKVDKKVEPKSCSGGGGSGGGGTGGGGSEVQLLESGGGLVQPGGSLRLSCAVSGIDLSNYAINWVRQAPGKCLEWIGIIWASGTTFYATWAKGRFTISRDNSKNTVYLQMNSLRAEDTAVYYCARTVPGYSTAPYFDLWGQGTLVTVSSGGGGSGGGGSGGGGSGGGGSDIQMTQSPSSVSASVGDRVTITCQSSPSVWSNFLSWYQQKPGKAPKLLIYEASKLTSGVPSRFSGSGSGTDFTLTISSLQPEDFATYYCGGGYSSISDTTFGCGTKVEIKRT
chain 2: DIQMTQSPSSLSASVGDRVTITCRATQSIYNALAWYQQKPGKAPKLLIYNANTLHTGVPSRFSASGSGTDSTLTISSLQPEDFATYYCQQYYDYPLTFGGGTKVEIKRTVAAPSVFIFPPSDEQLKSGTASVVCLLNNFYPREAKVQWKVDNALQSGNSQESVTEQDSKDSTYSLSSTLTLSKADYEKHKVYACEVTHQGLSSPVTKSFNRGEC

- Kd (Human Serum Albumin [3]): 2.93 nM
- koff (Human Serum Albumin [3]): 0.000163 s⁻¹
- kon (Human Serum Albumin [3]): 58400 M⁻¹ s⁻¹
- Kd (Mouse Serum albumin): 4.16 nM
- koff (Mouse Serum albumin): 0.000368 s⁻¹
- kon (Mouse Serum albumin): 88600 M⁻¹ s⁻¹
- Kd (Cynomolgus Serum Albumin): 2.66 nM
- koff (Cynomolgus Serum Albumin): 0.000189 s⁻¹
- kon (Cynomolgus Serum Albumin): 71000 M⁻¹ s⁻¹
B3: A26 Fab-dsFv (645gH5gL4) (bispecific antibody)
heavy: EVQLVESGGGLVQPGGSLRLSCAASGFTFTNYGIHWIRQAPGKGLEWVASISPSGGLTYYRDSVKGRFTISRDDAKNSPYLQMNSLRAEDTAVYYCATGGEGIFDYWGQGTLVTVSSASTKGPSVFPLAPSSKSTSGGTAALGCLVKDYFPEPVTVSWNSGALTSGVHTFPAVLQSSGLYSLSSVVTVPSSSLGTQTYICNVNHKPSNTKVDKKVEPKSCSGGGGSGGGGTGGGGSEVQLLESGGGLVQPGGSLRLSCAVSGIDLSNYAINWVRQAPGKCLEWIGIIWASGTTFYATWAKGRFTISRDNSKNTVYLQMNSLRAEDTAVYYCARTVPGYSTAPYFDLWGQGTLVTVSS
light: DIQMTQSPSSLSASVGDRVTITCRATQSIYNALAWYQQKPGKAPKLLIYNANTLHTGVPSRFSASGSGTDSTLTISSLQPEDFATYYCQQYYDYPLTFGGGTKVEIKRTVAAPSVFIFPPSDEQLKSGTASVVCLLNNFYPREAKVQWKVDNALQSGNSQESVTEQDSKDSTYSLSSTLTLSKADYEKHKVYACEVTHQGLSSPVTKSFNRGECGGGGSGGGGSGGGGSDIQMTQSPSSVSASVGDRVTITCQSSPSVWSNFLSWYQQKPGKAPKLLIYEASKLTSGVPSRFSGSGSGTDFTLTISSLQPEDFATYYCGGGYSSISDTTFGCGTKVEIKRT
notes: Anti-OX40 A26 Fab fused to the disulphide-stabilised anti-albumin Fv 645gH5gL4; In the cell assay (2.4) it was labelled with Alexa Fluor 488; also called A26 Fab-Fv; Fab-Fv
